Data set [1] concerns the target bacteriophage T4 major capsid protein gp23 (bacteriophage T4). Nature of the data set: cryo-EM structure; purified emptied prolate heads of a gp13 amber mutant in 50 mM Tris pH 7.5, 1 mM MgCl2, 100 mM NaCl; fivefold symmetry, 10 Å; gp20 structure and a gp23 model fitted into the map.
Data set [2] deals with bacteriophage T4 portal protein gp20, construct gp20-N74 (residues 74–524) (bacteriophage T4) (UniProt P13334). The experiment in a line: cryo-EM structure; single particles of gp20-N74 after two gel filtrations, 1 mg/ml in 20 mM Tris-HCl pH 7.8, 400 mM NaCl, 5 mM EDTA, 0.3% octyl-β-glucoside; 12-fold symmetry imposed, 3.6 Å. For orientation: Size exclusion chromatography separates by hydrodynamic size, large species first.

Data set [3] shares this target. The experiment in a line: cryo-EM 2D classification of particles; oligomeric states counted in cryo-EM data of purified portals; gp20-N74 after a single gel filtration (narrow 500 μl fraction).
The target of data set [4] is gp20 mutant in which the tunnel loop (residues 377–388) had been deleted (bacteriophage T4). Described as above.
Data set [5] concerns the molecule itself. Nature of the data set: cryo-EM structure; purified emptied prolate heads of a gp13 amber mutant in 50 mM Tris pH 7.5, 1 mM MgCl2, 100 mM NaCl; fivefold symmetry, 10 Å; gp20 structure and a gp23 model fitted into the map.

On to “bacteriophage T4 major capsid protein gp23 (natural protein)”, for which the stoichiometry N in data set [1] worked out at 6.
Regarding “bacteriophage T4 portal protein gp20, construct gp20-N74 (residues 74–524) (from UniProt P13334 74-524) (domain or fragment)”, in data set [2], the percent of particles that are 12-mers was determined as 95%, the percent of particles that are 13-mers turned out to be 5% and the stoichiometry N is 12. In data set [3], the percent of particles that are 11-mers was 0.1%, the percent of particles that are 12-mers was 90% and the percent of particles that are 13-mers was determined as 9.9%.
In data set [4], “gp20 mutant in which the tunnel loop (residues 377–388) had been deleted (domain or fragment)” came in with a percent of particles that are 11-mers of 28% and a percent of particles that are 13-mers of 4%.

B1: bacteriophage T4 vertex protein gp24 (natural protein, UniProt P19896 11-427, looked up)
chain: STTTNSNSIGRPNLVALTRATTKLIYSDIVATQRTNQPVAAFYGIKYLNPDNEFTFKTGATYAGEAGYVDREQITELTEESKLTLNKGDLFKYNNIVYKVLEDTPFATIEESDLELALQIAIVLLKVRLFSDAASTSKFESSDSEIADARFQINKWQTAVKSRKLKTGITVELAQDLEANGFDAPNFLEDLLATEMADEINKDILQSLITVSKRYKVTGITDSGFIDLSYASAPEAGRSLYRMVCEMVSHIQKESTYTATFCVASARAAAILAASGWLKHKPEDDKYLSQNAYGFLANGLPLYCDTNSPLDYVIVGVVENIGEKEIVGSIFYAPYTEGLDLDDPEHVGAFKVVVDPESLQPSIGLLVRYALSANPYTVAKDEKEARIIDGGDMDKMAGRSDLSVLLGVKLPKIIIDE
notes: capsid vertex protein gp24 of bacteriophage T4, as present in fully expanded heads; source: emptied prolate heads of a T4 gp13 amber mutant, purified
For B1, in data set [5], the “stoichiometry N” value is 5.

A word on the stoichiometry N: it is the number of molecules, sites or subunits per partner or assembly.

These data come from paper PMC4493910, “Cryo-EM structure of the bacteriophage T4 portal protein assembly at near-atomic resolution” (Nature Communications, 2015).
